This data set concerns the molecule itself. Kind of data set: FRET or BRET.

B1: hOCT2 tagged with CFP or YFP at the N terminus (natural protein)
chain: MPTTVDDVLEHGGEFHFFQKQMFFLLALLSATFAPIYVGIVFLGFTPDHRCRSPGVAELSLRCGWSPAEELNYTVPGPGPAGEASPRQCRRYEVDWNQSTFDCVDPLASLDTNRSRLPLGPCRDGWVYETPGSSIVTEFNLVCANSWMLDLFQSSVNVGFFIGSMSIGYIADRFGRKLCLLTTVLINAAAGVLMAISPTYTWMLIFRLIQGLVSKAGWLIGYILITEFVGRRYRRTVGIFYQVAYTVGLLVLAGVAYALPHWRWLQFTVSLPNFFFLLYYWCIPESPRWLISQNKNAEAMRIIKHIAKKNGKSLPASLQRLRLEEETGKKLNPSFLDLVRTPQIRKHTMILMYNWFTSSVLYQGLIMHMGLAGDNIYLDFFYSALVEFPAAFMIILTIDRIGRRYPWAASNMVAGAACLASVFIPGDLQWLKIIISCLGRMGITMAYEIVCLVNAELYPTFIRNLGVHICSSMCDIGGIITPFLVYRLTNIWLELPLMVFGVLGLVAGGLVLLLPETKGKALPETIEEAENMQRPRKNKEKMIYLQVQKLDIPLN
Turning to B1, the NFRET was 0.176.

(Values after PMC4503226 (FASEB journal : official publication of the Federation of …, 2011).)
